The source of these data is US20230304022.

Common to all, as to assay: cell_activity
The test system of data set [1] is TALEN A2 NT-αN (synthetic). The note with it: HeLa; pair A1/A2.
Data set [2] has as its system TALEN C2 NT-αN (synthetic). The note with it: HeLa; pair C1/C2.
The subject of data set [3] is TALEN A1 NT-αN (synthetic). Particulars: HeLa; pair A1/A2.
The subject of data set [4] is GinC4 zinc finger recombinase (synthetic). The note with it: HEK293T; 107-fold in p263.
Data set [5] relates to GinC4 + Gin-Avr15Δ120 heterodimer (synthetic). Particulars: HEK293T; ZFR-TALER heterodimer.
The subject of data set [6] is Gin-Avr15Δ120 (synthetic repeats) (synthetic). Particulars: for activity (fold luciferase reduction): HEK293T.
The test system of data set [7] is Gin-AvrXa7 Δ128 (synthetic). Particulars: E. coli.
For data set [8], the system named is Gin-Pth15Δ120 (synthetic repeats) (synthetic). Particulars: E. coli.

For “ATTCTTCCAGAATTGA (double strand) [TALEN A2 half-site]”, the activity (fold over NT-T) in data set [1] is 9.

Consider “CAGAATTGATACTGACT (double strand) [TALEN C2 half-site]”, for which the activity (fold over NT-T) in data set [2] was 2.

Sequence “CCTGCAGCTCTCATTTT (double strand) [TALEN A1 half-site]” registered an activity (fold over NT-T) in data set [3] of 9.

Turning to “GCGGGAGGCGTGTCCAAAACCATGGTTTACAG (double strand) [C4-20G (C4 zinc finger site flanking Gin core)]”, in data set [4], the activity (fold luciferase reduction) was above 80.

“GCGGGAGGCGTGTCCAAAACCATGGTTTACAGGGTTCCTATAAACCCCCTCCAACCAGGTGCTAA (double strand) [Avr-G-ZF hybrid site]”: in data set [5], the activity (fold luciferase reduction) was above 140.

Take “GTGGTGTACAGTAGGGGGAGATGCAGCTGCTTCCAAAACCATGGTTTACAGGGTGGTTGCATCTCCCCCTACTGTACACCAC (double strand) [PthXo1-32G]”: the activity (fold less than cognate site) in data set [6] (E. coli) is above 600. This sequence displayed an activity (fold less than cognate) in data set [7] (non-cognate TALE site) above 100. Also, in data set [8], the activity (fold over non-cognate site) is above 600.

“TTAGCACCTGGTTGGAGGGGGTTTATAGCTTCACGAAATATTATAAATTATCAGGTTCCTATAAACCCCCTCCAACCAGGTGCTAA (double strand) [Avr32T]”: in data set [6] (E. coli), the activity (fold less than cognate core) is above 1000. The sequence also yielded an activity (fold less than cognate) in data set [7] above 100.

For “TTAGCACCTGGTTGGAGGGGGTTTATAGCTTCAGCTTCATCCAAAACCATGGTTTACAGGGTTCCGGTTCCTATAAACCCCCTCCAACCAGGTGCTAA (double strand) [Avr44G]”, the activity (fold luciferase reduction) in data set [6] was found to be 20.

On to “TTAGCACCTGGTTGGAGGGGGTTTATAGCTTCATCCAAAACCATGGTTTACAGGGTTCCTATAAACCCCCTCCAACCAGGTGCTAA (double strand) [Avr32G]”, for which the activity (fold luciferase reduction) in data set [6] turned out to be 6. Further, in data set [8], the activity (fold less than cognate site) was above 600.

Turning to “TTAGCACCTGGTTGGAGGGGGTTTATAGCTTCATCCAAAACCGGGGTTTACAGGGTTCCTATAAACCCCCTCCAACCAGGTGCTAA (double strand) [Avr32GG]”, the activity (fold less than cognate) in data set [7] was above 100.
